Measured values from article PMC3762362, “Three-color single molecule imaging shows WASP detachment from Arp2/3 complex triggers actin filament branch formation” (eLife, 2013).
Changes are numbered by the printed parent chain. Names and notes keep the numbering of the source. Each block holds one binder with its values, some of them ahead of it.

Target: Rabbit muscle actin (monomeric) (rabbit, UniProt P68135 1-377)
Assay: fluorescence polarisation; fluorescence anisotropy competition: 20 nM VCA-AF488 with rabbit muscle actin (150 nM in the legend, 200 nM in the methods) and increasing Cy3-diVCA construct; fit to a competition binding isotherm; 10 mM imidazole pH 7.0, 50 mM KCl, 1 mM EGTA, 1 mM MgCl2, 0.5 mM DTT, 0.1 mM ATP; room temperature
Conditions: both partners purified

B1: Cy3-diVCA wild-type (N-WASP VCA covalently dimerized with a Cy3 bis-maleimide) (domain or fragment)
chain: CGGSGGSGGSGGSSGRDALLDQIRQGIQLKSVADGQESTPPTPAPTSGIVGALMEVMQKRSKAIHSSDEDEDEDDEEDFEDDDEWED
modifications: Cy3 bis-maleimide (BMCy3) crosslinks the single Cys of the N-terminal extension of the two chains
notes: extension appended at the N-terminus; its Cys reacts with the Cy3 bis-maleimide; human N-WASP VCA, residues 432-505 (second WH2 motif (V) through the C-terminus); Covalent dimer; also called diVCA w.t; wild-type diVCA; source: E. coli BL21(DE3) T1R, purified (DEAE, Glutathione Sepharose, TEV cleavage, SOURCE 15Q, Superdex 200); not shown: GST, N-terminal, cleaved
- Kd: 340 nM

B4: Cy3-diVCA-A* (Δ486–488) (domain or fragment)
chain: CGGSGGSGGSGGSSGRDALLDQIRQGIQLKSVADGQESTPPTPAPTSGIVGALMEVMQKRSKAIHSSEDEDDEEDFEDDDEWED
modifications: Cy3 bis-maleimide (BMCy3) crosslinks the single Cys of the N-terminal extension of the two chains
notes: extension appended at the N-terminus; its Cys reacts with the Cy3 bis-maleimide; human N-WASP VCA, residues 432-505, three-residue deletion in the A-region; Covalent dimer; same design as m1; also called A* mutant; source: E. coli BL21(DE3) T1R, purified (DEAE, Glutathione Sepharose, TEV cleavage, SOURCE 15Q, Superdex 200); not shown: GST, N-terminal, cleaved
- Kd: 250 nM

The next lines start with the values.

- Kd: 660 nM
B2: Cy3-diVCA-V* (D435S/A436D) (domain or fragment)
chain: B1 chain with D17S, A18D
modifications: Cy3 bis-maleimide (BMCy3) crosslinks the single Cys of the N-terminal extension of the two chains
notes: extension appended at the N-terminus; its Cys reacts with the Cy3 bis-maleimide; human N-WASP VCA, residues 432-505, mutated in the V-region; Covalent dimer; same design as m1; also called V* mutant; source: E. coli BL21(DE3) T1R, purified (DEAE, Glutathione Sepharose, TEV cleavage, SOURCE 15Q, Superdex 200); not shown: GST, N-terminal, cleaved

- Kd: 260 nM
B3: Cy3-diVCA-C* (I467A) (domain or fragment)
chain: B1 chain with I49A
modifications: Cy3 bis-maleimide (BMCy3) crosslinks the single Cys of the N-terminal extension of the two chains
notes: extension appended at the N-terminus; its Cys reacts with the Cy3 bis-maleimide; human N-WASP VCA, residues 432-505, mutated in the C-region; Covalent dimer; same design as m1; also called C* mutant; source: E. coli BL21(DE3) T1R, purified (DEAE, Glutathione Sepharose, TEV cleavage, SOURCE 15Q, Superdex 200); not shown: GST, N-terminal, cleaved
